# Earlier results in paper PMC5683942.
# Legend:
# [1] = molecular target: Histone H4 K5buK8bu (Homo sapiens) (UniProt P62805)
# [2] = molecular target: Histone H3 K14ac (Homo sapiens) (UniProt P68431)
# [3] = molecular target: Histone H4 K12ac (Homo sapiens) (UniProt P62805)
# [4] = molecular target: Histone H4 K5ac (Homo sapiens) (UniProt P62805)
# [5] = molecular target: Histone H2A K5ac (Homo sapiens) (UniProt P0C0S8)
# [6] = molecular target: Histone H4 K8ac (Homo sapiens) (UniProt P62805)
Kd [1] [µM],Kd [2] [µM],Kd [3] [µM],Kd [4] [µM],Kd [5] [µM],Kd [6] [µM],Substance
60,–,–,–,–,–,BRD9 bromodomain (from UniProt Q9H8M2)
–,626,86.5,1240,48.5,697,BRPF1 bromodomain (from UniProt P55201)
